The values that follow come from the supplement of paper PMC9732359.

This data set is described as follows: protein stability index of a GFP-peptide fusion (yeast GPS) (PSI 1-4); higher = more stable; sorted into four equal gates, so the index is relative within each strain. An outline of the steps: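 Yeast carrying a pooled library were grown to mid-log phase in leucine-free medium. Each library plasmid expresses Cherry and has a tiled 17-residue yeast protein peptide fused downstream of GFP. Cells were sorted into four equal gates by GFP/Cherry ratio, and plasmids from each gate were PCR-amplified, Illumina-sequenced and assigned to strains by barcode. Summing, across gates, the read frequency times the gate number gave each peptide's protein stability index.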

± gives the uncertainty stated by the source.

For the sequence VIRDSVTYTEHAKRKTV [HHF1], the protein stability index by setting is: (doa10∆) 1.8 ± 0.081; (pdr5∆) 1.4 ± 0.074; (san1∆) 1.44 ± 0.12; (ubr1∆) 2.03 ± 0.051.

As for SNNQVIKMQRQFSQLND [MED6], the protein stability index runs as follows: (doa10∆) 3.01 ± 0.073; (pdr5∆) 3.04 ± 0.059; (san1∆) 3.03 ± 0.064; (ubr1∆) 3.18 ± 0.06.

Take EKKILNQFLKIKKKRKE [SMC1]: the protein stability index runs as follows: (doa10∆) 2.98 ± 0.12; (pdr5∆) 3.06 ± 0.12; (san1∆) 2.89 ± 0.1; (ubr1∆) 3.33 ± 0.15.

With LTPIQKKIMDETPSRLL [ITC1], the protein stability index reads like this: (doa10∆) 3.33 ± 0.074; (pdr5∆) 3.39 ± 0.062; (san1∆) 3.16 ± 0.049; (ubr1∆) 3.39 ± 0.039.

Consider FAGSNNQPHQSQTPSFN [YOR098C/NUP1], for which the protein stability index reads like this: (doa10∆) 2.68 ± 0.046; (pdr5∆) 2.91 ± 0.036; (san1∆) 2.73 ± 0.036; (ubr1∆) 3.01 ± 0.031.

Take IVDKYIGESARIIREMF [RPT4]: the protein stability index reads like this: (doa10∆) 2.5 ± 0.14; (pdr5∆) 2.6 ± 0.088; (san1∆) 2.48 ± 0.11; (ubr1∆) 2.44 ± 0.079.

LLVPLALLTKRLYPHWD [CSN12]: the protein stability index (doa10∆) was 2.33 ± 0.066, the protein stability index (pdr5∆) was 2.01 ± 0.063, the protein stability index (san1∆) came out at 1.83 ± 0.092 and the protein stability index (ubr1∆) was 1.5 ± 0.037.

Consider RNPDIYTREFVEAIRRS [NUT2], for which the protein stability index reads like this: (doa10∆) 2.42 ± 0.068; (pdr5∆) 2.15 ± 0.055; (san1∆) 2.84 ± 0.15; (ubr1∆) 3.02 ± 0.054.

As for NESLIPLINLALIDTEF [YML103C/NUP188], the protein stability index (doa10∆) is 2.51 ± 0.11, the protein stability index (pdr5∆) amounted to 1.9 ± 0.088, the protein stability index (san1∆) is 1.32 ± 0.15 and the protein stability index (ubr1∆) is 2.1 ± 0.12.

With FDVMIDEESLVKYMPEQ [RPO21], the protein stability index was 2.3 ± 0.15 (doa10∆), 2.04 ± 0.16 (pdr5∆), 1.86 ± 0.26 (san1∆) and 2.13 ± 0.058 (ubr1∆).

Take SEEKIRDYSKEILGINL [SIR4]: the protein stability index (doa10∆) was 3.17 ± 0.14, the protein stability index (pdr5∆) stood at 3.03 ± 0.083, the protein stability index (san1∆) worked out at 2.88 ± 0.073 and the protein stability index (ubr1∆) was found to be 3.06 ± 0.064.

For the sequence SSTGNANTSNNLFGATA [YJL041W/NSP1], the protein stability index by setting is: (doa10∆) 3.44 ± 0.084; (pdr5∆) 3.31 ± 0.049; (san1∆) 3.3 ± 0.051; (ubr1∆) 3.29 ± 0.056.

In the case of YNSVAEAKKFEPTYRLV [RPS24A], the protein stability index (doa10∆) is 2.87 ± 0.14, the protein stability index (pdr5∆) was 2.95 ± 0.13, the protein stability index (san1∆) turned out to be 2.71 ± 0.18 and the protein stability index (ubr1∆) was 2.74 ± 0.072.

As to EPILGQITLTFISELCS [YML103C/NUP188], the protein stability index (doa10∆) was 2.6 ± 0.06, the protein stability index (pdr5∆) was determined as 2.32 ± 0.062, the protein stability index (san1∆) is 3.1 ± 0.055 and the protein stability index (ubr1∆) stood at 3.02 ± 0.044.

As to YNVENQQYVAAGDLRAL [FAS1], the protein stability index by setting is: (doa10∆) 2.81 ± 0.11; (pdr5∆) 2.83 ± 0.087; (san1∆) 2.82 ± 0.13; (ubr1∆) 2.85 ± 0.13.

Regarding WGTLQSVSPQMNAILTD [SMD1], the protein stability index runs as follows: (doa10∆) 2.83 ± 0.11; (pdr5∆) 2.66 ± 0.1; (san1∆) 2.75 ± 0.057; (ubr1∆) 2.91 ± 0.074.

As to VDIYTHFTSPIRRYCDV [DIS3], the protein stability index (doa10∆) worked out at 1.61 ± 0.043, the protein stability index (pdr5∆) stood at 1.91 ± 0.055, the protein stability index (san1∆) is 1.94 ± 0.073 and the protein stability index (ubr1∆) is 2.19 ± 0.04.

As for MGQGLCNNINKGLKEND [BRR2], the protein stability index runs as follows: (doa10∆) 3.13 ± 0.095; (pdr5∆) 3.57 ± 0.15; (san1∆) 3.2 ± 0.071; (ubr1∆) 3.39 ± 0.1.

In turn, RNAQAQREAAAEYAQLL [RPS6A] had a protein stability index (doa10∆) of 2.88 ± 0.23, a protein stability index (pdr5∆) of 3.31 ± 0.2, a protein stability index (san1∆) of 2.85 ± 0.15 and a protein stability index (ubr1∆) of 3.2 ± 0.12.

With QSAIRPAGQATQKRTHV [RPL4A], the protein stability index was determined as 2.83 ± 0.09 (doa10∆), 2.8 ± 0.091 (pdr5∆), 2.72 ± 0.085 (san1∆) and 2.5 ± 0.074 (ubr1∆).

On to HPTTIESLREIPYGPDF [SEC65], for which the protein stability index by setting is: (doa10∆) 3.06 ± 0.069; (pdr5∆) 3.17 ± 0.06; (san1∆) 3.01 ± 0.058; (ubr1∆) 2.99 ± 0.049.

In the case of KSGKRKPNIILDEDDTN [RPC31], the protein stability index runs as follows: (doa10∆) 3.29 ± 0.1; (pdr5∆) 3.12 ± 0.092; (san1∆) 3.35 ± 0.067; (ubr1∆) 3.21 ± 0.046.

Take LLSDTFEVLAPKWERVF [RRI2]: the protein stability index is, setting by setting: (doa10∆) 3.13 ± 0.11; (pdr5∆) 2.48 ± 0.076; (san1∆) 1.75 ± 0.091; (ubr1∆) 2.93 ± 0.11.

In turn, TIFGGVDKNGAHLYMLE [PRE10] showed a protein stability index (doa10∆) of 2.88 ± 0.076, a protein stability index (pdr5∆) of 2.66 ± 0.071, a protein stability index (san1∆) of 2.87 ± 0.086 and a protein stability index (ubr1∆) of 3.29 ± 0.075.

With SFHVQKKTCSSCGYPAA [RPL37A], the protein stability index (doa10∆) turned out to be 1.85 ± 0.091, the protein stability index (pdr5∆) was determined as 2.13 ± 0.11, the protein stability index (san1∆) was 1.71 ± 0.16 and the protein stability index (ubr1∆) worked out at 2.06 ± 0.068.
